Consider one molecule from patent publication US20210238298A1 (ALLIGATOR BIOSCIENCE, published 2021).

The term EC50 (read off the curve) denotes the midpoint of the concentration-response curve. Read a high EC50 (read off the curve) as lower potency in that assay.

The target in this test is T1, Human OX40 (R&D systems, #3358_OX) (human, UniProt P43489 29-216).
T1 construct: Bought; Several catalogue numbers are given for it; also called human OX40 (R&D Systems, 3388-OX); OX40-Fc (R&D systems, #3358_OX); not shown: Fc part
T1 sequence: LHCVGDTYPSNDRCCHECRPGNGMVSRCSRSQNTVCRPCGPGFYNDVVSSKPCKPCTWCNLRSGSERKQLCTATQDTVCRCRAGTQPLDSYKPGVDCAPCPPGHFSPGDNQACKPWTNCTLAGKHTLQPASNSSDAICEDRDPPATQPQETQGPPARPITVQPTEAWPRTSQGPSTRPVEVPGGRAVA
In words: ELISA: human OX40 coated, goat anti-human kappa light chain HRP, luminescence. As for the experimental part: ELISA plates were coated with human with CTLA-4 (BMS, Orencia) or human OX40 (R&D Systems, 3388-OX) at 0.4 or 0.5 μg/ml, respectively. The ELISA plates were washed with PBST and then blocked with PBST+2% BSA for 1h at room temperature and then washed again with PBST. The bispecific molecules were added in dilution series to the plates and incubated for 1h at room temperature. The ELISA plates were washed, and binding was detected using goat anti human kappa light chain HRP for 1 h at room temperature. SuperSignal Pico Luminescent was used as substrate and luminescence was measured using Fluostar Optima.
Background: ELISA stands for enzyme-linked immunosorbent assay.

B1: anti-OX40 antibody 1168/1135 (antibody, V domains shown)
VH: EVQLLESGGGLVQPGGSLRLSCAASGFTFSGSSMSWVRQAPGKGLEWVSSISYYGGYTYYADSVKGRFTISRDNSKNTLYLQMNSLRAEDTAVYYCARYFPHYYFDYWGQGTLVTVSS
VL: not shown
notes: Tested as IgG
As to B1, the half-maximal effective concentration (EC50 (read off the curve)) was ~0.2 nM.
